Test results as given in a protein production outcome set (Wang et al. 2014).

assay: label from the status in PepcDB records
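Also: failed if final PepcDB status was selected cloned or expressed and not failed if soluble or beyond.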

Sequence | protein production
MGEGGEMGVGIFQIDMDWLHRWLRHRRGPGSGKTSGNRNLKPRLTPAAAQQDHRQMLCFMTLNAAVGVLIGICVGAALIFLDIGGLGARIGRAASPFVPVLLVVVPIASLFGAAAAASAILLMPYEKKFRDDDDDARGE | failed
MGEKELIRVGVVGTGYMGENHVRIYSEMEDVRLIGISDPNSSRVKELAARYETLPFSDHKKMFGKTNLDAISIAAPTTLHCPIVLDALEAGVDVLVEKPIADSVENATAMIESAEEMDRHLMVGHIERFNPAVLKLKEVVDSGVLGKIVSV | failed
MGFPRSIVLIAALLGGAVSGLTACSSFPFWSAGKEEDTDIKDEHADWGPAQFYAEAKHAMMDGSYDKAIKLYEKLEARYPFGDYATQAQIDVAFCYYKNNEPESAIAAVDRFIKLNPTEPHVDYAYYLRGLINYNRGIGFIDRWLPTDSSQRDPGSARDAYNDFETLLNKFPNSVYREDARQRAIALRNNLAMYDIHVADYYMRRRAYVAAIRRSAEVVQKYQRTQAIPHALRIMEDAYRQLDMPQMADDIARVYALNYAEGRLSKDEDYERTVMEEVWDFIGFDK | failed
MGGAGLDNAQNVRNQTQNQTKPIHVSDRNEAFNRHNENEQFGYVRYQKEQFDGEQQKTPVMNREETAHMISSLTVQLPHIQDAATLVTDREALVVYKTDSKNRELTADQVKKTAASVIPRYYHVYISDNPNHMQSVENYSNLGSGSRDIREIMSGTIQEMKTSPQGSPVSENENANGETRQDMKIDRNDKNARLEHHHHHH | not failed
MGGGNAQKSAMARAKNLEKAKAAGKGSQLEANKKAMSIQCKVCMQTFICTTSEVKCREHAEAKHPKADVVACFPHLKK | not failed
MGGNETRELPIINLSDKNLKQNTELWSFTRDSVREAMEHHGWFVAEYNNFPTGLHQSILEAAKELLDLPVEIKLKNENHKAGHGYITMMSDGQPVHEGLGIDQVNDVQQCRGFSRLMWPDDHDDNDRFCETVHAYAKMQAELEQLVIRMLFESYNVEKYTEKYIGGTRYLLRLLKYRRLPNGEPNRKFISHTDKSFISILHQNHITGLMLKSEKEDVWYHFTPSPTRFVVIAGDAIMAWSNDRIKACYHKVEMESVEMRYSLGFFSFQEGMISTPEEMVDKDHPLAYNPFHHDGLLEYYETLEVHLKAHRTMTKAYCGIP | failed
MGGRVTDVYNAFVPLVHISNNSTSDTNKAKENIISKLLDILSGIFVPIIHAIIGAGLLKGILIFLNFYHLVSPATSTYKLLSVFSDSAFYFMPILLAYSSAKKFKTNKYVAVAIAGILVHPELISMMSKSASVKFFGIPFTSATYSTSVLPIILGVWVMSYIERGLNKIIPKILRTVLVPLFTLLITAPIILGILGPIGTIVGDAIGQGTVQLYLHYGVIAGILVGAAYPFLVIMGMHVGFTPVMVQSLSKYGVDYMMGIFVASNSAEAGATTAVWLKTKNKQLKEIAGSSALNAIIGVTEPALFGVTSKLKKPLIAVSIGGAVGGGIAGLFKVAAQGAGTGPIAGIPLFFGKTFIWFIISCLVSYVVSFILAYVIGFEDIPNPEDLSQKNSMDNHEKIVTTVVANQSVADPVNGNVIPLSEVKDNVFSSKMMGDGAAIVPNDNKIYAPFDGVVELVFETKHAIGLKSYDGCELLIHVGLDTVELKGKHFISHVIKDQKVKKGDLLLEFDREAISKEGYDTTIPVIVTNSKDFENITKTKKKQLQHGEELLKLTAKNKEN | failed
MGHGIEVLPDLFCYTIQIVNICFVGNPESNDFVLVDAGMPKCANEIISVAEDRFGTNSRPKAIILTHGHFDHVGGIIELIKYWDVPVYAHQMEIPFLTGQQSYPEPDSTVEGGMIAKMSPLFPNEPIDLGNSIKVLPTDGTVPHMPDFRWIHTPGHTPGHISLFREKDRTLIAGDAFVTVKQEYLYKVITQEQEISGPPRYLTTDWKAAKESVITLEKLKPLSAVTGHGIPMSGELLSTSLKTLAQEFDKIAVPDYGKYVDKKLEHHHHHH | failed
MGHHHHHHSHAAAMANNLQKGSAGPMRLYVGSLHFNITEDMLRGIFEPFGRIESIQLMMDSETGRSKGYGFITFSDSECAKKALEQLNGFELAGRPMKVGHVTERTD | not failed
MGHHHHHHSHCSSCSTPLYDQGGPVEILPFLYLGSAYHASRKDMLDALGITALINVSANCPNHFEGHYQYKSIPVEDNHKADISSWFNEAIDFIDSIKNAGGRVFVHCQAGISRSATICLAYLMRTNRVKLDEAFEFVKQRRSIISPNFSFMGQLLQFESQVLAPHCSAEAGSPAMAVLDRGTSTTTVFNFPVSIPVHSTNSALSYLQSPITTSPSC | failed
MGHHHHHHSHDDLEVGSIYRGKITRVEKYGVFVSLNSHVWGLMRGLFPDYKVGDELFVRVSQVKPYKGEVDMIPASIKGP | not failed
MGHHHHHHSHEELPPTTELEEGLRNGVYLAKLAKFFAPKMVSEKKIYDVEQTRYKKSGLHFRHTDNTVQWLRAMESIGLPKIFYPETTDVYDRKNIPRMIYCIHALSLYLFKLGIAPQIQDLLGKVDFTEEEISNMRKELEKYGIQMPSFSKIGGILANELS | failed
MGHHHHHHSHELLVVGSRPELGRWEPRGAVRLRPAGTAAGDGALALQEPGLWLGEVELAAEEAAQDGAEPGRVDTFWYKFLKREPGGELSWEGNGPHHDRCCTYNENNLVDGVYCLPIGHWIEATGHTNEMKHTTDFYFNIAGHQAMHYSRILPNIWLGSCPRQVEHVTIKLKHELGITAVMNFQTEWDIVQNSSGCNRYPEPMTPDTMIKLYREEGLAYIWMPTPDMSTEGRVQMLPQAVCLLHALLEKGHIVYVHCNAGVGRSTAAVCGWLQYVMGWNLRKVQYFLMAKRPAVYI | failed
MGHHHHHHSHLCTNFFIFTGGPGSGKTAVLNELNTWGYLTVSEVARSIIQKQQADGGDAIHTGNRKAFRDLMLEQSIADYCKMQSEEKIVFFDRGIPDLYGYSKAFCGEASKEVNEAVGRFRYNKTVFIFPPWPEIYENDDERQQDYQEALQTYYAVKEGYFDCGYVLLEVPKCPIKDRANFIFQMISKNG | not failed
MGHHHHHHSHMAAPEAEVLSSAAVPDLEWYEKSEETHASQIELLETSSTQEPLNASEAFCPRDCMVPVVFPGPVSQEGCCQFTCELLKHIMYQRQQLPLPYEQLKHFYRKPSPQAEEMLKKKPRATTEVSSRKCQQALAELESVLSHLEDFFARTLVPRVLILLGGNALSPKEFYELDLSLLAPYSVDQSLSTAACLRRLFRAIFMADAFSELQAPPLMGTVVMAQGHRNCGEDWFRPKLNYRVPSRGHKLTVTLSCGRPSIRTTAWEDYIWFQAPVTFKGFRE | failed
MGHHHHHHSHMASPSKAVIVPGNGGGDVTTHGWYGWVKKELEKIPGFQCLAKNMPDPITARESIWLPFMETELHCDEKTIIIGHSSGAIAAMRYAETHRVYAIVLVSAYTSDLGDENERASGYFTRPWQWEKIKANCPYIVQFGSTDDPFLPWKEQQEVADRLETKLHKFTDCGHFQNTEFHELITVVKSLLKVPA | failed

Sequence | protein production
MGHHHHHHSHMASRVRVTILFATETGKSEALAWDLGALFSCAFNPKVVCMDKYRLSCLEEERLLLVVTSTFGNGDCPGNGEKLKKSLFMLKELNNKFRYAVFGLGSSMYPRFCAFAHDIDQKLSHLGASQLTPMGEGDELSGQEDAFRSWAVQTFKAACETF | failed
MGHHHHHHSHMDDIFTQCREGNAVAVRLWLDNTENDLNQGDDHGFSPLHWACREGRSAVVEMLIMRGARINVMNRGDDTPLHLAASHGHRDIVQKLLQYKADINAVNEHGNVPLHYACFWGQDQVAEDLVANGALVSICNKYGEMPVDKAKAPLRELLRERAEK | not failed
MGHHHHHHSHMGTKRPAMLDNEADGNKTMIELSDNENPWTIFLETVDPELAASGATLPKFDKDHDVMLFLKMYDPKTR | failed
MGHHHHHHSHMKALLSIEMDMQVPFHDVDSMGITWHGNYLRYFEVARCKLLDELGYNYRQMRASNYAWPIIDVQIKYVKPSTFEQHITVRAELVEWENRLKINYQIRDTATGERITKGYTIQAAVDMTSQEMCFVTPEVFRSKIAPLLAKVDNE | not failed
MGHHHHHHSHMNLERLRKRVRQYLDQQQYQSALFWADKVASLSREEPQDIYWLAQCLYLTAQYHRAAHALRSRKLDKLYEACRYLAARCHYAAKEHQQALDVLDMEEPINKRLFEKYLKDESGFKDPSSDW | failed
MGHHHHHHSHMPVTEKDLAEDAPWKKIQQNTFTRWCNEHLKCVNKRIGNLQTDLSDGLRLIALLEVLSQKRMYRKYHQRPTFRQMQLENVSVALEFLDRESIKLVSIDSKAIVDGNLKLILGLVWTLILHYSISMPVWEDEGDDDAKKQTPKQRLLGWIQNKIPYLPITNFNQNWQDGKALGALVDSCAPGLCPDWESWDPQKPVDNAREAMQQADDWLGVPQVITPEEIIHPDVDEHSVMTYLSQFPKAKLKPGAPLKPKL | not failed
MGHHHHHHSHMRPELEDSTLRYLQDLLAWVEENQHRVDGAEWGVDLPSVEAQLGSHRGLHQSIEEFRAKIERARSDEGQLSPATRGAY | failed
MGHHHHHHSHMRTISFFNNKGGVGKTTLSTNVAHYFALQGKRVLYVDCDPQCNATQLMLTEEQTESIYLDGLNDEVAERNSLAKTVYAIFVPLREGESQIAAEITPMRSERFGVDVLPGHPALSQIEDLMSDSWQSALGRQTGPFRRIHWAGQLAHAMERDDRYDVIFFDVGPSLGPFNRTVLLGCDAFVTPTATDLFSFHAFGNLARWFDAWVTQYAEIHEGNMAEWKKYS | failed
MGHHHHHHSHMTKREYDQCRIQVRLPDGTSLTQTFRAREQLAAVRLYVELHRGEELGGGQDPVQLLSGFPRRAFSEADMERPLQELGLVPSAVLIVAKKCPS | failed
MGHHHHHHSHMTLEEFSAGEQKTERMDKVGDALEEVLSKALSQRTITVGVYEAAKLLNVDPDNVVLCLLAADEDDDRDVALQIHFTLIQAFCCENDINILRVSNPGRLAELLLLETDAGPAASEGAEQPPDLHCVLVTNPHSSQWKDPALSQLICFCRESRYMDQWVPVINLPER | failed
MGHHHHHHSHMTNTVDSLFDTGLERYKAGEPAADLIPVFKEVCDRAPKASAAWICLAWLYLLEDKPNLALKAAQKAVKINPQDPQARVNLAVAMLETGQKGLRQHIDITQQLMLVNPDWRDEIQNSIADGLSRKPDWQSLAKVKGWLFNE | not failed
MGHHHHHHSHMYRYFTPKIVKRALNIWPPFWGAGISIENISSDFQEVSVILKDRFWNRNANRTQYGGSIFSMTDPVFSLMLMGILRDEYYVWDKQSEIDFISPGTTDLHARFVISDEQLAEIKQETKEGEKHFPQFEVYIYDKKGKVVARVNRTLYVRKKPEFR | not failed
MGHHHHHHSHPPRDLDSKACISIGNQNFEVKADDLEPIMELGRGAYGVVEKMRHVPSGQIMAVKRIRATVNSQEQKRLLMDLDISMRTVDCPFTVTFYGALFREGDVWICMELMDTSLDKFYKQVIDKGQTIPEDILGKIAVSIVKALEHLHSKLSVIHRDVKPSNVLINALGQVKMCDFGISGYLVDSVAKTIDAGCKPYMAPERINPELNQKGYSVKSDIWSLGITMIELAILRFPYDSWGTPFQQLKQVVEEPSPQLPADKFSAEFVDFTSQCLKKNSKERPTYPELMQHPFFTLHESKGTDVASFVKLILGD | not failed
MGHHHHHHSHSIKPSTNLVFAKVLEKTRHPNANHLNLVKVKANQKVYEIVCGANNFSVHNWVVLAKLNAELANGLKITPRELRGYVSNGMLCAYSEINPQATSFLTSTDLDGILVLDDNYDHYKTPNQIFNLDDVILDLSIPSNRNDLNGYFWIAKELCAYFDFEYVVDATINHRPHKEIIDVRI | failed
MGHHHHHHSHSVGMDTFIHRIDSTEVIYQPRRKRAKLIGKYLMGDLLGEGSYGKVKEVLDSETLCRRAVKILKKKKLRRIPNGEANVKKEIQLLRRLRHKNVIQLVDVLYNEEKQKMYMVMEYCVCGMQEMLDSVPEKRFPVCQAHGYFCQLIDGLEYLHSQGIVHKDIKPG | failed
